In patent US20240042051A1, “MCL-1 INHIBITOR ANTIBODY-DRUG CONJUGATES AND METHODS OF USE” (Novartis AG, priority 2020, published 2024):

B1: humanized CD48A (antibody, V domains shown)
VH: QVQLVQSGSELKKPGASVKVSCKASGYTFTDFGMNWVRQAPGQGLEWMGWINTFTGEPSYGNVFKGRFVFSLDTSVSTAYLQISSLKAEDTAVYYCARRHGNGNVFDSWGQGTLVTVSS
VL: EIVLTQSPDFQSVTPKEKVTITCRASQSIGSNIHWYQQKPDQSPKLLIKYTSESISGVPSRFSGSGSGTDFTLTINSLEAEDAATYYCQQSNSWPLTFGGGTKVEIKR
B2: NY938 (antibody, human IgG1, kappa, V domains shown)
VH: QVQLVQSGAEVKKPGASVKVSCKASGYTFTEYTMHWVRQAPGQGLEWMGGINPDTGDTSYNQKFTGRATLTVDKSTSTAYMELSSLRSEDTAVYYCARAQFWTTPRFAYWGQGTLVTVSS
VL: DIQMTQSPSSLSASVGDRVTITCKASQDVGTAVAWYQQKPGKVPKLLIYWASTRHTGVPSRFSGSGSGTDFTLTISSLQPEDVATYYCQQYSTYPITFGQGTKLEIKR

Experiments:
2249 (Homo sapiens) = 2249 (Homo sapiens) (UniProt P09326); assay: ELISA, HEK293T culture supernatant (1:10) with the CD48-mouse Ig construct, antibody at 25, 250 and 500 ng/mL, detection goat anti-mouse IgG (H+L) HRP, Mean OD450-570
[1] = molecular target: hCD48EC:mouse-Ig (non-mutated human CD48-mouse IgG1 fusion protein) (human) (UniProt P09326); assay: as above
[2] = molecular target: Cynomolgus Monkey CD48 (recombinant, CynoCD48 aa29-217) (cynomolgus monkey (Macaca fascicularis)); assay: SPR Biacore T200, antibody captured on protein A chip, CD48 as analyte, 25 °C, 1:1 model

hCD48EC:mouse-Ig (non-mutated human CD48-mouse IgG1 fusion protein) (human), sequence (P09326 27-220, stated change not applied): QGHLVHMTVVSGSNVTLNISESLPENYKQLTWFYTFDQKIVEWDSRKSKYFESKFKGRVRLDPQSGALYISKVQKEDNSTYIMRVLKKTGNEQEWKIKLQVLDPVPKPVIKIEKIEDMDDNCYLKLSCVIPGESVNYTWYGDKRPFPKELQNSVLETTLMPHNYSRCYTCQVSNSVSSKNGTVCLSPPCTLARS
2249 (Homo sapiens), sequence (P09326 27-220): as the sequence (P09326 27-220, stated change not applied) above

Binder	EC50 (read off the curve) (2249 (Homo sapiens)) [µg/mL]	EC50 (read off the curve) [1] [µg/mL]	Kd [2] [nM]	koff [2] [s⁻¹]	kon [2] [M⁻¹ s⁻¹]
B1	0.03	0.02	–	–	–
B2	–	–	1.5	0.00037	250000
